Laboratory results reported in paper PMC7617774.

Target: SafA_(Ntd1) (Salmonella enterica)
Assay: crystal structure

SafA_(Ntd1) (domain or fragment)
stoichiometry N: 2
